The record followed here is patent US20240263193A1.

Numbering of substitutions follows the chain as printed.

What all share (assay): cell-based or functional assay
Test [1] has as its target T1, BAD (N-terminal BAD peptide).
T1 sequence (peptide): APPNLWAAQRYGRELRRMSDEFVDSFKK

The next test addresses T2, BAD(G).
T2 sequence (peptide): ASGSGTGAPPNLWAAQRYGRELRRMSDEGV

The next test concerns the target T3, BAD(V).
T3 sequence (peptide): T2 sequence (peptide) with G29V

A further test has as its target T4, Bad(F).
T4 sequence (peptide): T2 sequence (peptide) with G29F

The target in a further test is T5, Bad(L).
T5 sequence (peptide): T2 sequence (peptide) with G29L

A further test deals with T6, MS1(I17A).
T6 sequence (peptide): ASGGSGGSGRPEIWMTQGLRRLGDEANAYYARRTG

Another test deals with T7, MS1(I17G).
T7 sequence (peptide): T6 sequence (peptide) with A26G

The target of another test is Bcl-TEV IRES iADAR.

Chain of Bcl-xL (Q07817 4-198 limits assumed): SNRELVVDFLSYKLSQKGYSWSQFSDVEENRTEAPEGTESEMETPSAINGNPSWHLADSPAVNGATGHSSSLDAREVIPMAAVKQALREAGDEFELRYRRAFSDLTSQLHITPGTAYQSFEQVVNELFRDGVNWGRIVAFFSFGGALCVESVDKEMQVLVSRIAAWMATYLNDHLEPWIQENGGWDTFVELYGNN
Chain of Mcl-1 (Q07820 172-327 limits assumed): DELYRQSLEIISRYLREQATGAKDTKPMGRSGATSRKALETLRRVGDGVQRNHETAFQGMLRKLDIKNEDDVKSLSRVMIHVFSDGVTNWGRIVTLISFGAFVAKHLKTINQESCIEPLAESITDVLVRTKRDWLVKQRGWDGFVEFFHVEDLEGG

The substance Bcl-xL (from UniProt Q07817 4-198) returned a fold change of mNeonGreen/mCherry with A-1331852, nBAD-ADAR-cBcl-xL with unmutated DD, HEK cells, microscopy (intramolecular pair) in test [1] of 5.9 fold. Besides, the Fold Change, 1 µM against 0 µM A-1331852, HEK cells, flow cytometry (intramolecular pair) is 9.65 fold with BAD(G), 14.4 fold in the test with BAD(V), 37 fold in the test with Bad(F) and 23.2 fold in the test with Bad(L). The median ratio of mNeonGreen to mCherry, 0 µM A-1331852, HEK cells, flow cytometry (intramolecular pair) with BAD(G) came out at 0.1; with BAD(V), 0.0708; in the test with Bad(F) it was 0.026; in the test with Bad(L) it was 0.0389. The median ratio of mNeonGreen to mCherry, 1 µM A-1331852, HEK cells, flow cytometry (intramolecular pair) was found to be 0.968 with BAD(G), 1.02 with BAD(V), 0.962 in the test with Bad(F) and 0.903 with Bad(L).

Mcl-1 (from UniProt Q07820 172-327) showed a fold change of mNeonGreen/mCherry with S63845, MS1(A)-Mcl1 ADAR with unmutated DD, HEK cells, microscopy (intramolecular pair) in the test with MS1(I17A) of 12 fold. Further, the fold change of mNeonGreen/mCherry with S63845, MS1(I17G)-Mcl1 ADAR with unmutated DD, HEK cells, microscopy (intramolecular pair) with MS1(I17G) came to 2.8 fold.

In the test with Bcl-TEV IRES iADAR, “TEV Protease (from UniProt P04517 2038-2271) (enzyme)” yielded a fold change of the mean RFU (mNeonGreen-to-mCherry), TEV protease against filler DNA, single-transcript IRES-iADAR, HEK cells, microscopy of 17 fold; a fold change of the mean RFU (mNeonGreen-to-mCherry), dual addition of A-1331852 and TEV protease, single-transcript IRES-iADAR, HEK cells, microscopy of 32 fold.
